± gives the uncertainty stated by the source.
Assay: amyloid nucleation score (Sup35N fusion, yeast selection) (log enrichment); library NNK3; higher = more nucleation; inactive = no reads after selection
Procedure, shortened: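 The nucleation score, computed with DiMSum, is the log enrichment of output over input reads, centred on the mode score of non-aggregating sequences. Sequences with under 100 input reads were dropped. Reads were generated by Illumina sequencing of plasmid inserts from psi-negative yeast with Sup35N fused to peptides of 20 random codons, induced with 100 μM copper sulfate for 24 hours and grown 7 days at 30°C on medium lacking adenine and uracil.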
In the case of WWSKVMYRSTPTLNAFKDRQ, the amyloid nucleation score is reported as “inactive”.
In the case of WYFWVFCSFKLENCAPVNQW, the amyloid nucleation score is reported as “inactive”.
In the case of WYHVSHVYYGVGIGLRD, the amyloid nucleation score is reported as “inactive”.
For WYIVTNR, the amyloid nucleation score was “inactive”.
For WYYQVKMISVCSLIEGMWTS, the amyloid nucleation score was “inactive”.
For YAARNWIVQVD, the amyloid nucleation score was “inactive”.
With YADRRIFSVS the amyloid nucleation score was “inactive”.
In the case of YAIAAYFDKRRIVGWVINCS, the amyloid nucleation score is reported as “inactive”.
For YAKCSDVY, the amyloid nucleation score was “inactive”.
Work on YALYCVFTGNSWQSVLRHRY yielded an amyloid nucleation score of 1.32 ± 0.095.
For YASFTK, the amyloid nucleation score was “inactive”.
With YAWLCAASRYKTMVESLAEF the amyloid nucleation score was “inactive”.
In the case of YAYVQRVYLACSINLMCLWY, the amyloid nucleation score is reported as “inactive”.
Work on YCCTLVTRCSVMNTL yielded an amyloid nucleation score of 2.46 ± 0.065.
YCFICVDSIAL showed an amyloid nucleation score of 2.27 ± 0.072.
With YCGEYYITGNMRLPLSTPSG the amyloid nucleation score was “inactive”.
In the case of YCGTY, the amyloid nucleation score is reported as “inactive”.
With YCGWLCSSPPVQNV the amyloid nucleation score was “inactive”.
In the case of YCIRVVVWYNRHYGYSLS, the amyloid nucleation score is reported as “inactive”.
Substance YCLKLLGGFC has an amyloid nucleation score of 0.657 ± 0.27.
With YCMGYSMHIV the amyloid nucleation score was “inactive”.
With YCMVKL the amyloid nucleation score was “inactive”.
In the case of YCRCLCMLYG, the amyloid nucleation score is reported as “inactive”.
With YCVSMANKLTCLCKGNSYPN the amyloid nucleation score was 2.4 ± 0.061.
With YCVYQWLSYSVCLFNLMECT the amyloid nucleation score was “inactive”.
With YCYAMS the amyloid nucleation score was “inactive”.
YCYLGG gave an amyloid nucleation score of -0.36 ± 0.8.
With YDCCMLHWIVFGGIVDGMCL the amyloid nucleation score was “inactive”.
For YDCFFTEIAVVVNIE, the amyloid nucleation score was “inactive”.
In the case of YDGIKSGFECLESGRKCKTA, the amyloid nucleation score is reported as “inactive”.
In the case of YDKCLQCARRHNSSILSPTG, the amyloid nucleation score is reported as “inactive”.
In the case of YDRPSVVRTWRTREKAVSGP, the amyloid nucleation score is reported as “inactive”.
In the case of YDSRFTKLTCQSPINWHKEV, the amyloid nucleation score is reported as “inactive”.
In the case of YDTNLRLFRSRRLSPGWCFR, the amyloid nucleation score is reported as “inactive”.
In the case of YDVTSDR, the amyloid nucleation score is reported as “inactive”.
In the case of YEFATNAQESS, the amyloid nucleation score is reported as “inactive”.
For YELMIFVTELALLDEILPEQ, the amyloid nucleation score was “inactive”.
Substance YEPSNCKLVSMYVFCRLKLA has an amyloid nucleation score of -0.574 ± 1.
For YEQHSY, the amyloid nucleation score was “inactive”.
With YETSVH the amyloid nucleation score was “inactive”.
For YETYSCEFFVYRLFCLNRSH, the amyloid nucleation score was “inactive”.
With YEWSYCFNYLCHHYDTNWQR the amyloid nucleation score was 2.96 ± 0.056.
Work on YFFTHDFHVVLNFANCIWYL yielded an amyloid nucleation score of 2.99 ± 0.069.
With YFFVHEKCQVGGRGGKLAKK the amyloid nucleation score was “inactive”.
With YFFWDLEILMHPFFQTVRNK the amyloid nucleation score was “inactive”.
In the case of YFISWSFHGFVTSPGFWSGC, the amyloid nucleation score is reported as 1.41 ± 0.15.
In the case of YFLGWRYQCDIVIFWYQLRV, the amyloid nucleation score is reported as “inactive”.
With YFLRVNGSCANIDDHGLFSW the amyloid nucleation score was “inactive”.
For YFLSN, the amyloid nucleation score was “inactive”.
For YFNLITAYKVLSAHGRTLWR, the amyloid nucleation score was “inactive”.
For YFQLLVSLVSVFH, the amyloid nucleation score was “inactive”.
With YFRNHSRVDDLDGGRRDVFR the amyloid nucleation score was “inactive”.
For YFRQFSVYYLFFNLMYILHA, the amyloid nucleation score was “inactive”.
With YFRVAFCTHGFIMARCAFSS the amyloid nucleation score was “inactive”.
For YFRYIWEHMLVYGRVAKDDP, the amyloid nucleation score was “inactive”.
For YFSRLTYCSRNSSCWILYCF, the amyloid nucleation score was “inactive”.
With YFSWLSLHVFVSGFVRIVCR the amyloid nucleation score was “inactive”.
With YFVYEG the amyloid nucleation score was “inactive”.
With YFYFDFNYNMYGVKALLVLC the amyloid nucleation score was “inactive”.
In the case of YGCFVPY, the amyloid nucleation score is reported as “inactive”.
In the case of YGEFDTLQW, the amyloid nucleation score is reported as “inactive”.
In the case of YGMWHHYFGDLTLSSRLNHV, the amyloid nucleation score is reported as “inactive”.
In the case of YGNHFSNNDGSIFER, the amyloid nucleation score is reported as “inactive”.
With YGPSLQNSWDPFPRASSPVI the amyloid nucleation score was “inactive”.
For YGRRKYSWAVWICKHIGAYG, the amyloid nucleation score was “inactive”.
For YGSIRLNMYWFVCVCTISWI, the amyloid nucleation score was 0.661 ± 0.13.
In the case of YGSSHYPYNSY, the amyloid nucleation score is reported as “inactive”.
Substance YGTNQMTLPKCRYWGFYREE has an amyloid nucleation score of -0.149 ± 0.7.
YGVWCSYKFVYSCDPYDSAG gave an amyloid nucleation score of 0.557 ± 0.15.
With YGWIDRS the amyloid nucleation score was “inactive”.
With YHWSGRLL the amyloid nucleation score was “inactive”.
YIAVMILLCHVKHEMSLLII gave an amyloid nucleation score of 2.71 ± 0.055.
For YIFFMDLNYLSSNSITVRAV, the amyloid nucleation score was 1.53 ± 0.074.
Substance YIFVALYPSHT has an amyloid nucleation score of 0.443 ± 0.28.
YIILCSIFSYWENMGHI gave an amyloid nucleation score of 2.78 ± 0.08.
With YIKCKFF the amyloid nucleation score was “inactive”.
With YILGKSKSPFLLKCAVKI the amyloid nucleation score was “inactive”.
In the case of YILMDFSYADLSFVLEIFFA, the amyloid nucleation score is reported as 0.09 ± 0.64.
For YINQWCTCVT, the amyloid nucleation score was “inactive”.
Work on YINRKLRDACRRYVFGW yielded an amyloid nucleation score of 0.05 ± 0.89.
With YIRATCDSLCVISVWVLRFL the amyloid nucleation score was “inactive”.
In the case of YISLT, the amyloid nucleation score is reported as “inactive”.
YIVLAPCWCHIGSIDLAVPH showed an amyloid nucleation score of 3.01 ± 0.06.
For YIVLMSLLFGM, the amyloid nucleation score was “inactive”.
In the case of YKGKWLFCRQMSCEHFFGFF, the amyloid nucleation score is reported as “inactive”.
For YKIMTLYTSCKRFEVHRGCT, the amyloid nucleation score was “inactive”.
In the case of YKRLVSLNVEWALRK, the amyloid nucleation score is reported as “inactive”.
For YLFHLLSDRRCEDMCVVGIK, the amyloid nucleation score was “inactive”.
In the case of YLFHSEGHWRDPHSLPSYLT, the amyloid nucleation score is reported as “inactive”.
For YLGGFLWVWKQFSSCRLVQY, the amyloid nucleation score was -0.057 ± 0.78.
With YLGVSILVSSYYWVRVGTGR the amyloid nucleation score was “inactive”.
Substance YLHAEYRMCKLIFKMEEFRD has an amyloid nucleation score of 0.276 ± 0.46.
For YLHYRHYSSVCFYFSSNISN, the amyloid nucleation score was “inactive”.
With YLIMSVSYSASTCLIKMAMV the amyloid nucleation score was “inactive”.
With YLLDLTTVCAGPWRIPQLMK the amyloid nucleation score was “inactive”.
With YLLHK the amyloid nucleation score was “inactive”.
With YLLKCYVMSDRSMSTCVQLE the amyloid nucleation score was “inactive”.
In the case of YLLNVVYGKEVHMASDFLYG, the amyloid nucleation score is reported as “inactive”.
With YLLVHLAKCIFNWHLSSIEM the amyloid nucleation score was -0.109 ± 0.78.
Work on YLNSDYSMKFTRWY yielded an amyloid nucleation score of 1.1 ± 0.12.
In the case of YLPAHIYMK, the amyloid nucleation score is reported as “inactive”.
With YLRAAIL the amyloid nucleation score was “inactive”.
In the case of YLSEPGNYRVSNVIGCNRID, the amyloid nucleation score is reported as “inactive”.
With YLSGS the amyloid nucleation score was “inactive”.
With YLTMLWLFHLRERAALMGLN the amyloid nucleation score was “inactive”.
With YLVSIRNNYRCEV the amyloid nucleation score was “inactive”.
In the case of YLWFWQFNTRLGVRRIFWTR, the amyloid nucleation score is reported as “inactive”.
In the case of YLWTTLCKPRVDFRAEYRDL, the amyloid nucleation score is reported as 2.05 ± 0.058.
In the case of YLYFV, the amyloid nucleation score is reported as “inactive”.
With YMFRFGSTDCEAYV the amyloid nucleation score was “inactive”.
With YMGILCMGLLNSKW the amyloid nucleation score was -0.606 ± 0.76.
In the case of YMMGKISSPGNLMTMFAVDG, the amyloid nucleation score is reported as “inactive”.
With YMNSVACSEMFSFSGLWEWW the amyloid nucleation score was “inactive”.
In the case of YMSSYRKEDCGQWLDEWPMA, the amyloid nucleation score is reported as “inactive”.
For YMTGLD, the amyloid nucleation score was “inactive”.
Substance YMVVFSVNDRMFVPFY has an amyloid nucleation score of 0.926 ± 0.15.
Work on YMWKVVDCSPVVSTS yielded an amyloid nucleation score of -0.352 ± 1.3.
For YNDCNIN, the amyloid nucleation score was “inactive”.
YNDDKYCFDMNCMSPRYRGD showed an amyloid nucleation score of -0.191 ± 0.4.
With YNDKGTV the amyloid nucleation score was “inactive”.
YNFTSFLLIAGNAGSSSSRK gave an amyloid nucleation score of 2.04 ± 0.073.
